Measured values: the supplement of paper PMC7125110
± gives the standard error. For some assays here: This sample holds only a part of the variants without activity.

B1: glmS ribozyme (parent)
chain: AUAAAAGCGCCAGAACUACAGAAAUGUAGUUGACGAGGAGGAGGUUUAUCGAAUUUUCGGCGGAUGCCUCCAAA

Assays:
Conditions in all cases: with glucosamine-6-phosphate
[1] = variants of: B1; assay: kcat; higher = faster cleavage; RNA array
In short: (§1)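 Weighted Michaelis–Menten fits across concentrations supplied kcat and KM, based on kobs from one- or two-exponential decay fits to normalised per-tile medians. The data came from barcoded ribozyme variants transcribed in situ by E. coli RNA polymerase on sequenced MiSeq chips and tracked at 37 °C by a hybridised Cy3 probe. Glucosamine-6-phosphate (40 μM to 10 mM) in HEPES/KCl/Mg(OAc)2 buffer was flowed in.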

[2] = variants of: B1; assay: self-cleavage kobs at 640 uM GlcN6P; higher = faster cleavage; RNA array
In short: as §1

[3] = variants of: B1; assay: self-cleavage kobs at 160 uM GlcN6P; higher = faster cleavage; RNA array
In short: as §1

[4] = variants of: B1; assay: self-cleavage kobs at 10000 uM GlcN6P; higher = faster cleavage; RNA array
In short: as §1

[5] = variants of: B1; assay: self-cleavage kobs at 40 uM GlcN6P; higher = faster cleavage; RNA array
In short: as §1

[6] = variants of: B1; assay: self-cleavage kobs at 2500 uM GlcN6P; higher = faster cleavage; RNA array
In short: as §1

[7] = variants of: B1; assay: KM; higher = weaker cofactor use; RNA array
In short: as §1

| Variant | kcat [1] [s⁻¹] | self-cleavage kobs at 640 uM GlcN6P [2] [s⁻¹] | self-cleavage kobs at 160 uM GlcN6P [3] [s⁻¹] | self-cleavage kobs at 10000 uM GlcN6P [4] [s⁻¹] | self-cleavage kobs at 40 uM GlcN6P [5] [s⁻¹] | self-cleavage kobs at 2500 uM GlcN6P [6] [s⁻¹] | KM [7] [µM] |
| --- | --- | --- | --- | --- | --- | --- | --- |
| AUAAAAGCGCCAGAACUACAGAAAUGUAGUUGACGAGGAGGAGGUUUAUCGAAUUUUCGGAGGAUGCAUCCAAA [C61A C68A] | 1.17e-05 ± 1.8e-06 | – | – | – | – | – | – |
| AUAAAAGCGCCAGAACUACAGAAAUGUAGUUGACGAGGAGGAGGUUUAUCGAAUUUUCGGGGGAUGACUCCAAA [C61G C67A] | 2.67e-05 ± 6.5e-06 | 3.33e-05 ± 1.4e-05 | – | – | – | – | – |
| AUAAAAGCGCCAGAACUACAGAAAUGUAGUUGACGAGGAGGAGGUUUAUCGAAUUUUCGGGGGAUGUCUCCAAA [C61G C67U] | 2.12e-05 ± 5.2e-06 | – | – | – | – | – | – |
| AUAAAAGCGCCAGAACUACAGAAAUGUAGUUGACGAGGAGGAGGUUUAUCGAAUUUUCGUCGGAUUCCUCCAAA [G60U G66U] | < 1e-05 | < 1e-05 | < 1e-05 | < 1e-05 | – | – | – |
| AUAAAAGCGCCAGAACUACAGAAAUGUAGUUGACGAGGAGGAGGUUUAUCGAAUUUUCGUCGGAUCCCUCCAAA [G60U G66C] | < 1e-05 | – | – | < 1e-05 | – | – | – |
| AUAAAAGCGCCAGAACUACAGAAAUGUAGUUGACGAGGAGGAGGUUUAUCGAAUUUUCGGCCGAUGCGUCCAAA [G62C C68G] | 1.08e-05 ± 2.7e-06 | – | – | < 1e-05 | – | – | – |
| AUAAAAGCGCCAGAACUACAGAAAUGUAGUUGACGAGGAGGAGGUUUAUCGAAUUUUCGCCGGAUGCCUGCAAA [G60C C70G] | 2.59e-05 ± 9.4e-06 | – | – | < 1e-05 | < 1e-05 | – | – |
| AUAAAAGCGCCAGAACUACAGAAAUGUAGUUGACGAGGAGGAGGUUUAUCGAAUUUUCGGGGGAUGCCCGCAAA [C61G U69C C70G] | 5.75e-05 ± 1.9e-05 | 6.36e-05 ± 2.5e-05 | 5.95e-05 ± 2.1e-05 | – | – | 8.71e-05 ± 4.1e-05 | – |
| AUAAAAGCGCCAGAACUACAGAAAUGUAGUUGACGAGGAGGAGGUUUAUCGAAUUUUCGGAGGAUUCCUCCAAA [C61A G66U] | < 1e-05 | – | – | – | – | – | – |
| AUAAAAGCGCCAGAACUACAGAAAUGUAGUUGACGAGGAGGAGGUUUAUCGAAUUUUCGAAGGAUGCCUCCAAA [G60A C61A] | < 1e-05 | – | < 1e-05 | – | < 1e-05 | – | – |
| AUAAAAGCGCCAGAACUACAGAAAUGUAGUUGACGAGGAGGAGGUUUAUCGAAUUUUCGGCUGAUGCCACCAAA [G62U U69A] | 2.59e-05 ± 3.9e-06 | – | – | – | – | – | – |
| AUAAAAGCGCCAGAACUACAGAAAUGUAGUUGACGAGGAGGAGGUUUAUCGAAUUUUCGGAGGAUGCCUCUAAA [C61A C71U] | 1.05e-05 ± 3.5e-06 | < 1e-05 | – | – | – | – | – |
| AUAAAAGCGCCAGAACUACAGAAAUGUAGUUGACGAGGAGGAGGUUUAUCGAAUUUUCGGGGGAUGCCUCUAAA [C61G C71U] | < 1e-05 | – | – | < 1e-05 | < 1e-05 | – | – |
| AUAAAAGCGCCAGAACUACAGAAAUGUAGUUGACGAGGAGGAGGUUUAUCGAAUUUUCGGGGCAUGCCUCCAAA [C61G G63C] | < 1e-05 | – | < 1e-05 | – | < 1e-05 | < 1e-05 | 181 ± 67 |
| AUAAAAGCGCCAGAACUACAGAAAUGUAGUUGACGAGGAGGAGGUUUAUCGAAUUUUCGGCUGAUGGUUCCAAA [G62U C67G C68U] | 1.17e-05 ± 4.6e-06 | – | – | – | – | – | – |
| AUAAAAGCGCCAGAACUACAGAAAUGUAGUUGACGAGGAGGAGGUUUAUCGAAUUUUCGGCCGAUGCCUGAAAA [G62C C70G C71A] | 3.99e-05 ± 1.8e-05 | 6.26e-05 ± 2.7e-05 | – | – | – | 5.21e-05 ± 2.2e-05 | – |
| AUAAAAGCGCCAGAACUACAGAAAUGUAGUUGACGAGGAGGAGGUUUAUCGAAUUUUCUGCGGAUGCCGCCAAA [G59U U69G] | 2.94e-05 ± 8.4e-06 | – | – | – | – | – | – |
| AUAAAAGCGCCAGAACUACAGAAAUGUAGUUGACGAGGAGGAGGUUUAUCGAAUUUUCGGCUGAUGUCUCCAAA [G62U C67U] | < 1e-05 | – | – | < 1e-05 | – | – | – |
| AUAAAAGCGCCAGAACUACAGAAAUGUAGUUGACGAGGAGGAGGUUUAUCGAAUUUUCGGCUGAUGCCUCAAAA [G62U C71A] | < 1e-05 | – | – | – | < 1e-05 | < 1e-05 | – |
| AUAAAAGCGCCAGAACUACAGAAAUGUAGUUGACGAGGAGGAGGUUUAUCGAAUUUUCGGAGGAUGACUCCAAA [C61A C67A] | 6.65e-05 ± 1.4e-05 | 5.15e-05 ± 1.8e-05 | 5.31e-05 ± 1.5e-05 | – | – | 7.72e-05 ± 1.8e-05 | – |
| AUAAAAGCGCCAGAACUACAGAAAUGUAGUUGACGAGGAGGAGGUUUAUCGAAUUUUCGGAGGAUGGCUCCAAA [C61A C67G] | 2.3e-05 ± 5e-06 | 2.63e-05 ± 1.3e-05 | – | – | – | – | – |
| AUAAAAGCGCCAGAACUACAGAAAUGUAGUUGACGAGGAGGAGGUUUAUCGAAUUUUCGGCCGAUGCCUUCAAA [G62C C70U] | < 1e-05 | < 1e-05 | < 1e-05 | < 1e-05 | < 1e-05 | – | – |
| AUAAAAGCGCCAGAACUACAGAAAUGUAGUUGACGAGGAGGAGGUUUAUCGAAUUUUCGGGGGAUGCCCCCAAA [C61G U69C] | 6.05e-05 ± 1.7e-05 | 5.44e-05 ± 1.3e-05 | 6.31e-05 ± 1.1e-05 | – | – | 7.59e-05 ± 1.2e-05 | – |
| AUAAAAGCGCCAGAACUACAGAAAUGUAGUUGACGAGGAGGAGGUUUAUCGAAUUUUCGGAGGAAGCCUCCAAA [C61A U65A] | < 1e-05 | – | – | – | – | < 1e-05 | – |
| AUAAAAGCGCCAGAACUACAGAAAUGUAGUUGACGAGGAGGAGGUUUAUCGAAUUUUCUGCGGAUACCUCCAAA [G59U G66A] | 2.67e-05 ± 2.5e-07 | – | – | – | – | – | 3110 ± 100 |
| AUAAAAGCGCCAGAACUACAGAAAUGUAGUUGACGAGGAGGAGGUUUAUCGAAUUUUCUGCGGAUUCCUCCAAA [G59U G66U] | < 1e-05 | – | – | < 1e-05 | < 1e-05 | – | – |
| AUAAAAGCGCCAGAACUACAGAAAUGUAGUUGACGAGGAGGAGGUUUAUCGAAUUUUCGGUGGAUGCCUGCAAA [C61U C70G] | 1.1e-05 ± 2e-06 | – | – | – | – | – | – |
| AUAAAAGCGCCAGAACUACAGAAAUGUAGUUGACGAGGAGGAGGUUUAUCGAAUUUUCGUCGGAUGACUCCAAA [G60U C67A] | < 1e-05 | – | < 1e-05 | – | < 1e-05 | < 1e-05 | – |
| AUAAAAGCGCCAGAACUACAGAAAUGUAGUUGACGAGGAGGAGGUUUAUCGAAUUUUCGGCCGAUGCCCCCAAA [G62C U69C] | < 1e-05 | < 1e-05 | – | – | < 1e-05 | – | – |
